Results reported in patent publication US20210188968A1 (AB2 BIO, published 2021).

T1: recombinant human interleukin-18 (human, UniProt Q14116 37-193)
T1 construct: Commercially available recombinant human IL-18; also called IL-18; free IL-18
T1 sequence (looked up): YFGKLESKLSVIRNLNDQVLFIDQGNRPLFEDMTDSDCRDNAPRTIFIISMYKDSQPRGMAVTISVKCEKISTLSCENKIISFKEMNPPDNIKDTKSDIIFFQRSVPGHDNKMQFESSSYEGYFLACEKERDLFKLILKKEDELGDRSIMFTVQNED

T2: IL-18/IL-18BP complex (human, UniProt Q14116 37-193)
T2 construct: Non-covalent 1:1 complex; In the third screening step IL-18BP was linked to Luminex beads and then complexed to IL-18; also called IL-18 previously complexed to IL-18BP; complex IL-18-IL-18BP
T2 sequence 1: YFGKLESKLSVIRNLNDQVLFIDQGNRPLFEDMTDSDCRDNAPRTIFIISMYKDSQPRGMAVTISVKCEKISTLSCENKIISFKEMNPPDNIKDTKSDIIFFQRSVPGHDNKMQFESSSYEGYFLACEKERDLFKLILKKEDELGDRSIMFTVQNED
T2 sequence 2: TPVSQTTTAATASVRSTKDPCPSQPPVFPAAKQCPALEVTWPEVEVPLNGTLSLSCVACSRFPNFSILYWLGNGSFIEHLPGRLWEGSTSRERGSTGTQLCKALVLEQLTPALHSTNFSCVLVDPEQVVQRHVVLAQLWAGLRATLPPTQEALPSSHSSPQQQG

B1: Antibody 109A6 (antibody, V domains shown)
VH: EVQLQQSGAELVKPGASVKLSCTASGFKIKDTYIHWVIQRPAQGLEWIGRIDPANGNTIYGSKFQGKATLTADTSSNTAYIHLSSLTSGDSAVYYCAGYVWFAYWGQGTLVTVSA
VL: DVVMTQVPLSLPVSLGDQASISCRSSQRLVHSNGNTYLHWFLQKPGQSPKLLIYTVSNRFSGVPDRFSGSGSGTDFTLKISRVEAEDLGVYFCSQSTLVPWTFGGGTKLEIK
notes: Mouse hybridoma monoclonal antibody
B2: Antibody 131B4-2 (antibody, V domains shown)
VH: EVQLQQSGAELVKPGASVKLSCTASGFKIKDTYIHWLKQRPEQGLEWIGRIDPANGNTIYGSKFQGKATITADTSSNTAYIQLSSLTSGDTAVYFCAGYVWFAYWGQGTLVTVSA
VL: DAVLTQTPLSLPVSLGDQASISCTSSQSLVHSNGNTYLHWYLQKPGQSPKLLIYKVSDRFSGVPDRFSGSGSGTDFTLMITRVEAEDLGVYFCSQSSLVPWTFGGGTKLEVK
notes: Mouse monoclonal antibody obtained on clone dilution
B3: Antibody 132H4 (antibody, V domains shown)
VH: EVKLVESGGGLVKPGGSLKLSCAASGFTFSNYAMSWVRQNPAKRLEWVATISSGGANIYYPDSVKGRFIISRDNARNTLYLQMSSLRSEDTAMYYCARGDYFNHFWFAYWGQGTLVTVSA
VL: DVLMTQTPLSLPVSLGDQASISCRSSQSIVHSNGNTYLEWYLQKPGQSPKFLIYKVSNRFSGVPDRFSGSGSGTDFTLKINRVEAEDLGIYYCFQGSHVPWTFGGGTKLEIK
notes: as for B1
B4: recombinant human IL-18 Binding Protein (r-hIL-18BP), isoform a (other)
chain: TPVSQTTTAATASVRSTKDPCPSQPPVFPAAKQCPALEVTWPEVEVPLNGTLSLSCVACSRFPNFSILYWLGNGSFIEHLPGRLWEGSTSRERGSTGTQLCKALVLEQLTPALHSTNFSCVLVDPEQVVQRHVVLAQLWAGLRATLPPTQEALPSSHSSPQQQG
notes: It was biotinylated in the second screening step and linked to Luminex beads in the third; also called human IL-18BP; IL-18BPa
B5: Antibody 107C6 (antibody, V domains shown)
VH: QIQLVQSGPELKKPGETVKLSCRASGYTFTNYGMNWVKQAPGKGLKWMGWINTYSGVPTYADDFKGQFAFSLETSAATAFLQINNLKDEDTATYFCAREGYSTTRSMDYWGQGTSVTVSS
VL: DIVMSQSPSSLAVSAGEKVTMSCKSSQSLLDSRTRKNYLVWYQQKPGQSPKLLIYWASTRGSGVPDRFTGSGSGTDFTLTISSVQAEDLAVYYCKQSYNLRTFGGGTKLEIK
notes: Mouse hybridoma monoclonal antibody; also called clone #107C6
B6: Antibody 108F8 (antibody, V domains shown)
VH: QIQLVQSGPDSKKPGETVKLSCRASGYTFTNYGMNWVKQAPGKGLKWMGWINTYSGVPTYADDFKGQFAFSLETSAATAFLQINNLKDEDTATYFCAREGYSTTRSMDYWGQGTSVTVSS
VL: DIVMSQSPSSLAVSAGEKVTMSCKSSQSLLDSRTRKNYLVWYQQKPGQSPKLLIYWASTRGSGVPDRFTGSGSGTDFTLTISSVQAEDLAVYYCKQSYNLRTFGGGTKLEIK
notes: as for B1

What was measured:
[1] = target: T1, recombinant human interleukin-18; experiment: Luminex, biotinylated IL-18BP (competitor) on IL-18 beads pre-complexed with the antibody
[2] = target: T1, recombinant human interleukin-18; experiment: titration of antibody with a defined IL-18 molarity; KD from EC50 by Law of Mass Action
Experimental: (§1) The respective KD values of each monoclonal antibody was calculated following titration of the antibodies with a defined IL-18 molarity and derived from the obtained EC₅₀ values with the Law of Mass Action (see above).

[3] = target: T1, recombinant human interleukin-18; experiment: Luminex, antibody on IL-18 beads
Experimental: Following immunization, B cells were isolated from spleen and hybridized following standard hybridoma technology. […] The screening was performed in 3 sequential and selective steps: [1253] First step. […] [1254] Second step. […] For this, monoclonal antibodies were bound to Luminex beads carrying IL-18. […] [1255] Third step.

[4] = target: T1, recombinant human interleukin-18; experiment: titration of antibody with a defined IL-18 molarity; KD from EC50 by Law of Mass Action; mean
Experimental: as §1

IL-18/IL-18BP complex [5] = target: T2, IL-18/IL-18BP complex; experiment: Luminex, antibody on IL-18 presented by IL-18BP-linked beads
IL-18/IL-18BP complex [6] = target: T2, IL-18/IL-18BP complex; experiment: Luminex, third screening against first screening
[7] = target: T1, recombinant human interleukin-18; experiment: after clone dilution; method not detailed
[8] = target: T1, recombinant human interleukin-18; experiment: competition in solution: 400 pg/ml IL-18 spiked with rising IL-18BP; remaining free IL-18 detected by ELISA with plate-bound IL-18BP as capture
[9] = target: T1, recombinant human interleukin-18; experiment: free IL-18 ELISA (IL-18BP-coated plate); 400 pg/mL IL-18 in PBS/5% BSA spiked with 0-10000 pg/mL IL-18BP
Experimental: A description of the purification protocol is provided in section 6.6.2. Plates are incubated for a period of time at 4° C. and then stabilized with a blocking buffer containing bovine serum albumin or other appropriate blocking agents. Once the reaction is finished, microplates are sealed and stored at 4° C. until used for detection of free IL-18. Microplates can also be dried in a stabilizing solution allowing storage at room temperature and then be reconstituted by hydration when needed for assay.

| Binder | Fluorescence intensity of IL-18BP binding [1] [fluorescence intensity] | Kd [2] [pM] | Fluorescence intensity [3] [fluorescence intensity] | Kd [4] [pM] | Fluorescence intensity (IL-18/IL-18BP complex [5]) [fluorescence intensity] | fold inhibition of binding on IL-18 complexed to IL-18BP against binding on IL-18 (IL-18/IL-18BP complex [6]) [fold] | binding result [7] | IC50 (read off the curve) [8] [ng/mL] | molar ratio IL-18BP/IL-18 at which free IL-18 is near background [9] [fold] |
| --- | --- | --- | --- | --- | --- | --- | --- | --- | --- |
| B1 | 913 | 10 | 25800 | 10 | 33 | > 500 | – | – | – |
| B2 | – | – | – | – | – | – | binds | – | – |
| B3 | 1490 | 5 | 23800 | 5 | 28 | > 500 | – | – | – |
| B4 | – | – | – | – | – | – | – | ~2 | ~15 |
| B5 | 1390 | < 2 | 26200 | < 2 | 33 | > 500 | – | – | – |
| B6 | 1290 | < 2 | 25100 | < 2 | 45 | > 500 | – | – | – |
